This note sets out measurements from patent US20250320312A1 (OXITOPE PHARMA B V, published 2025).

Holding throughout (assay): scFv ELISA
A general note: An ELISA detects its analyte on a solid surface through an enzyme-linked reagent.

The target of experiment [1] is Peptide 5: Biotin-…-[Tyr(PC)]-acid.
Another experiment has as its target BSA (UniProt P02769).
For experiment [2], the target named is Peptide 1: Biotin-…-[Tyr(PC)]-acid.
Experiment [3] deals with T1, Peptide 8: Biotin-AEAAAKEAAAKEAAAKEAAAKAAA-Tyr-acid (N-terminal biotin; C-terminal acid; no PC).
T1 construct: control peptide without PC
T1 peptide: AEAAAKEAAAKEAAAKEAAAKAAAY
The procedure, abridged:
(§1)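 Bound scFv was read as OD450 after HRP–anti-V5 detection, TMB development and HCl stop. PPE with BSA was incubated 1 h at RT on BSA-blocked wells coated overnight at 4° C. with peptide, or on streptavidin wells loaded 1 h with biotinylated PC-peptides at 1 μg/mL.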

The target in experiment [4] is T2, Peptide 4: Biotin-AGGGGSGGGGSGGGGSAAA-Tyr-acid (N-terminal biotin; C-terminal acid; no PC).
T2 construct: control peptide without PC
T2 peptide: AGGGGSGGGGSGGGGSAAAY
Summed up:
as §1

Chain of BSA (P02769 25-607 limits assumed): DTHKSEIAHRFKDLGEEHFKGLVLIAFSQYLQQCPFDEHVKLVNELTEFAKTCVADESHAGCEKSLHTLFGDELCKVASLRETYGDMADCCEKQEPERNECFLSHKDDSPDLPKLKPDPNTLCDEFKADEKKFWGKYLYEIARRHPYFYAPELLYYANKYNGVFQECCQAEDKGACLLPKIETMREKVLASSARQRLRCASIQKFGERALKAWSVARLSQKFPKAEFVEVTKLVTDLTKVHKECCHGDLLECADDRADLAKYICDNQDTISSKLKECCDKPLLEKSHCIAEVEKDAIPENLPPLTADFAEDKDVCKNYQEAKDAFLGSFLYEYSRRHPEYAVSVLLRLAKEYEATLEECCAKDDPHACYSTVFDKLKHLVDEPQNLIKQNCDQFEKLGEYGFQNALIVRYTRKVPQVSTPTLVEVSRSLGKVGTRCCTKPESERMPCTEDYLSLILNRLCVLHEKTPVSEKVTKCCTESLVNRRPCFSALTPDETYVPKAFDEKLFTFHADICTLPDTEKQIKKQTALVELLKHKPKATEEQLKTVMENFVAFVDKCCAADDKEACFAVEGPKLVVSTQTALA

B1: PcOxP_DB01_B10 (scFv, V domains shown)
VH: EVQLLESGGGLVQPGGSLRLSCAASGFTFSDFYMEWVRQAPGKGLEWVAASRNKANDYTTTYADSVKGRFTISRDNSKNTLYLQMNSLRAEDTAVYYCARDYYGSSHWYFDVWGQGTLVTVSS
VL: DIVMTQSPDSLAVSLGERATINCTASESLYSSKGKVHYLAWYQQKPGQPPKLLIYGASNRYIGVPDRFSGSGSGTDFTLTISSLQAEDVAVYYCVQFYSYPLTFGGGTKVEIK
notes: scFv in periplasmic extract
For B1, the OD450 is 1.11 OD450 in experiment [1]; 0.08 OD450 with BSA; 0.52 OD450 in experiment [2]; 0.04 OD450 in experiment [3]; 0.05 OD450 in experiment [4].

B2: PcOxP_DB01_D07 (scFv, V domains shown)
VH: EVQLLESGGGLVQPGGSLRLSCAASGFTFSDYYMEWVRQAPGKGLEWVAASRNKANDYTTEYADSVKGRFTISRDNSKNTLYLQMNSLRAEDTAVYYCARDYYGDSYWYFDVWGQGTLVTVSS
VL: DIVMTQSPDSLAVSLGERATINCKASQSVLSSKNNVNYLAWYQQKPGQPPKLLIYGASNRYSGVPDRFSGSGSGTDFTLTISSLQAEDVAVYYCAQFYSYPLTFGGGTKVEIK
notes: scFv in periplasmic extract
Regarding B2, the OD450 in experiment [1] was 0.6 OD450; with BSA it was 0.05 OD450; in experiment [2], 0.14 OD450; in experiment [3], 0.04 OD450; in experiment [4], 0.04 OD450.

B3: PcOxP_DB01_D04 (scFv, V domains shown)
VH: EVQLLESGGGLVQPGGSLRLSCAASGFTFSDFYMEWVRQAPGKGLEWVAASRNKANDYTTEYADSVKGRFTISRDNSKNTLYLQMNSLRAEDTAVYYCARDYYGSSYWYFDVWGQGTLVTVSS
VL: DIVMTQSPDSLAVSLGERATINCTASESLWSSKHKVHYLAWYQQKPGQPPKLLIYGASNRYIGVPDRFSGSGSGTDFTLTISSLQAEDVAVYYCAQFYSYPLTFGGGTKVEIK
notes: scFv in periplasmic extract
With B3, the OD450 in experiment [1] is 0.87 OD450; in the experiment with BSA it was 0.07 OD450; in experiment [2], 0.45 OD450; in experiment [3], 0.06 OD450; in experiment [4], 0.08 OD450.

B4: PcOxP_DB01_D12 (scFv, V domains shown)
VH: EVQLLESGGGLVQPGGSLRLSCAASGFTFSDYYMEWVRQAPGKGLEWVAASRNKYNDYTTEYADSVKGRFTISRDNSKNTLYLQMNSLRAEDTAVYYCARDYYGSSYWYFDVWGQGTLVTVSS
VL: DIVMTQSPDSLAVSLGERATINCTASESLYSSKHKVHYLAWYQQKPGQPPKLLIYGASNRYIGVPDRFSGSGSGTDFTLTISSLQAEDVAVYYCAQFYSYPLTFGGGTKVEIK
notes: scFv in periplasmic extract
Consider B4, for which the OD450 in experiment [1] worked out at 1.48 OD450; with BSA, 0.06 OD450; in experiment [2] it was 0.85 OD450; in experiment [3] it was 0.05 OD450; in experiment [4], 0.05 OD450.

B5: PcOxP_DB01_D10 (scFv, V domains shown)
VH: EVQLLESGGGLVQPGGSLRLSCAASGFTDSDFYMEWVRQAPGKGLEWVAASRNKANDYTTEYADSVKGRFTISRDNSKNTLYLQMNSLRAEDTAVYYCARDYYGSSYWYFDVWGQGTLVTVSS
VL: DIVMTQSPDSLAVSLGERATINCTASESLYSSKHKVHYLAWYQQKPGQPPKLLIYGASNRYIGVPDRFSGSGSGTDFTLTISSLQAEDVAVYYCAQFYSYPLTFGGGTKVEIK
notes: scFv in periplasmic extract
Turning to B5, the OD450 in experiment [1] stood at 0.44 OD450; in the experiment with BSA, 0.06 OD450; in experiment [2] it was 0.15 OD450; in experiment [3], 0.04 OD450; in experiment [4], 0.05 OD450.

B6: PcOxP_DB01_E03 (scFv, V domains shown)
VH: EVQLLESGGGLVQPGGSLRLSCAASGFGFSDFYMEWVRQAPGKGLEWVGASRNKHNDYTTEYADSVKGRFTISRDNSKNTLYLQMNSLRAEDTAVYYCARDYYGSSYWYFDVWGQGTLVTVSS
VL: DIVMTQSPDSLAVSLGERATINCKSSESVYSSKHKKHYLAWYQQKPGQPPKLLIYGASNRYIGVPDRFSGSGSGTDFTLTISSLQAEDVAVYYCAQFYSYPLTFGGGTKVEIK
notes: scFv in periplasmic extract
As to B6, the OD450 in experiment [1] stood at 1.54 OD450; with BSA, 0.08 OD450; in experiment [2], 0.86 OD450; in experiment [3] it was 0.05 OD450; in experiment [4], 0.05 OD450.

B7: PcOxP_DB01_E02 (scFv, V domains shown)
VH: EVQLLESGGGLVQPGGSLRLSCAASGFTFSDYYMEWVRQAPGKGLEWVAASRNKGNDYTTEYADSVKGRFTISRDNSKNTLYLQMNSLRAEDTAVYYCARDYYGSSYWYFDVWGQGTLVTVSS
VL: DIVMTQSPDSLAVSLGERATINCTASESLYSSKHKVHYLAWYQQKPGQPPKLLIYGASNRYIGVPDRFSGSGSGTDFTLTISSLQAEDVAVYYCAQFYSYPLTFGGGTKVEIK
notes: scFv in periplasmic extract
B7: the OD450 in experiment [1] worked out at 1.02 OD450; in the experiment with BSA it was 0.07 OD450; in experiment [2], 0.46 OD450; in experiment [3] it was 0.05 OD450; in experiment [4] it was 0.05 OD450.

B8: PcOxP_DB01_D06 (scFv, V domains shown)
VH: EVQLLESGGGLVQPGGSLRLSCAASGFTFSDFYMEWVRQAPGKGLEWVAASRNKANDYTTEYADSVKGRFTISRDNSKNTLYLQMNSLRAEDTAVYYCARDYYGSSYWYFDSWGQGTLVTVSS
VL: DIVMTQSPDSLAVSLGERATINCTASESLYSSKHKVHYLAWYQQKPGQPPKLLIYGASNRYIGVPDRFSGSGSGTDFTLTISSLQAEDVAVYYCAQFYIYPLTFGGGTKVEIK
notes: scFv in periplasmic extract
Take B8: the OD450 in experiment [1] amounted to 0.69 OD450; in the experiment with BSA, 0.06 OD450; in experiment [2] it was 0.41 OD450; in experiment [3], 0.04 OD450; in experiment [4] it was 0.04 OD450.

B9: PcOxP_DB01_B12 (scFv, V domains shown)
VH: EVQLLESGGGLVQPGGSLRLSCAASGFTFSSYYMEWVRQAPGKGLEWVAASRNKGNSYTTEYADSVKGRFTISRDNSKNTLYLQMNSLRAEDTAVYYCARDYYGSSYWYFDVWGQGTLVTVSS
VL: DIVMTQSPDSLAVSLGERATINCTASESLYSSKHKVHYLAWYQQKPGQPPKLLIYGASNRYIGVPDRFSGSGSGTDFTLTISSLQAEDVAVYYCGQFYSYPLTFGGGTKVEIK
notes: scFv in periplasmic extract
For B9, the OD450 in experiment [1] was 1.19 OD450; with BSA, 0.09 OD450; in experiment [2], 0.56 OD450; in experiment [3] it was 0.05 OD450; in experiment [4] it was 0.06 OD450.

B10: PcOxP_DB01_D11 (scFv, V domains shown)
VH: EVQLLESGGGLVQPGGSLRLSCAASGFTFSSYYMEWVRQAPGKGLEWVAASRNKANDYTTEYADSVKGRFTISRDNSKNTLYLQMNSLRAEDTAVYYCARDYYGSSYWYNDVWGQGTLVTVSS
VL: DIVMTQSPDSLAVSLGERATINCTASESLYSSKWKVHYLAWYQQKPGQPPKLLIYGASNRYIGVPDRFSGSGSGTDFTLTISSLQAEDVAVYYCAQFYSYPLTFGGGTKVEIK
notes: scFv in periplasmic extract
B10: the OD450 is 2.09 OD450 in experiment [1]; 0.08 OD450 in the experiment with BSA; 1.37 OD450 in experiment [2]; 0.05 OD450 in experiment [3]; 0.06 OD450 in experiment [4].

B11: PcOxP_DB01_E01 (scFv, V domains shown)
VH: EVQLLESGGGLVQPGGSLRLSCAASGFTSSDFYMEWVRQAPGKGLEWVAASRNKANDYTTEYADSVKGRFTISRDNSKNTLYLQMNSLRAEDTAVYYCARDYYGSSYWYFDVWGQGTLVTVSS
VL: DIVMTQSPDSLAVSLGERATINCTASESLYSSKHKVHYLAWYQQKPGQPPKLLIYGASNRVIGVPDRFSGSGSGTDFTLTISSLQAEDVAVYYCANFYSYPLTFGGGTKVEIK
notes: scFv in periplasmic extract
In the case of B11, the OD450 in experiment [1] was found to be 1.48 OD450; with BSA, 0.05 OD450; in experiment [2], 0.75 OD450; in experiment [3], 0.04 OD450; in experiment [4], 0.05 OD450.

B12: PcOxP_DB01_C10 (scFv, V domains shown)
VH: EVQLLESGGGLVQPGGSLRLSCAASGFTFSDFYMEWVRQAPGKGLEWVAASRNKANDYTTEYADSVKGRFTISRDNSKNTLYLQMNSLRAEDTAVYYCARDYYGSSYWYFDVWGQGTLVTVSS
VL: DIVMTQSPDSLAVSLGERATINCTSSQSLLSSSHNKNYLAWYQQKPGQPPKLLIYGASNRYIGVPDRFSGSGSGTDFTLTISSLQAEDVAVYYCAQFYSYPLTFGGGTKVEIK
notes: scFv in periplasmic extract
With B12, the OD450 in experiment [1] was found to be 0.53 OD450; with BSA, 0.07 OD450; in experiment [2], 0.13 OD450; in experiment [3], 0.04 OD450; in experiment [4], 0.04 OD450.

B13: PcOxP_DB01_C09 (scFv, V domains shown)
VH: EVQLLESGGGLVQPGGSLRLSCAASGFTFSDFYMEWVRQAPGKGLEWVAASRNKANDYTTEYADSVKGRFTISRDNSKNTLYLQMNSLRAEDTAVYYCARDYYGSSYWYFDVWGQGTLVTVSS
VL: DIVMTQSPDSLAVSLGERATINCTASQSVYSSKNKVHYLAWYQQKPGQPPKLLIYGASNRYIGVPDRFSGSGSGTDFTLTISSLQAEDVAVYYCAQFYSYPLTFGGGTKVEIK
notes: scFv in periplasmic extract
Regarding B13, the OD450 stood at 0.94 OD450 in experiment [1]; 0.07 OD450 with BSA; 0.27 OD450 in experiment [2]; 0.05 OD450 in experiment [3]; 0.05 OD450 in experiment [4].

B14: PcOxP_DB01_D01 (scFv, V domains shown)
VH: EVQLLESGGGLVQPGGSLRLSCAASGFTFSSYYMEWVRQAPGKGLEWVAASRNKANDYTTEYADSVKGRFTISRDNSKNTLYLQMNSLRAEDTAVYYCARDYYGSSYWYFDVWGQGTLVTVSS
VL: DIVMTQSPDSLAVSLGERATINCTASESLYSPKHKVHYLAWYQQKPGQPPKLLIYGASNRYIGVPDRFSGSGSGTDFTLTISSLQAEDVAVYYCAQFYIYPLTFGGGTKVEIK
notes: scFv in periplasmic extract
As to B14, the OD450 in experiment [1] worked out at 1.12 OD450; with BSA it was 0.06 OD450; in experiment [2], 0.85 OD450; in experiment [3], 0.04 OD450; in experiment [4], 0.05 OD450.

B15: PcOxP_DB01_C07 (scFv, V domains shown)
VH: EVQLLESGGGLVQPGGSLRLSCAASGFTFSDYYMEWVRQAPGKGLEWVAASRNKANDYTTEYADSVKGRFTISRDNSKNTLYLQMNSLRAEDTAVYYCARDYYGSSYWYFDVWGQGTLVTVSS
VL: DIVMTQSPDSLAVSLGERATINCTASESLYSSKHKVHYLAWYQQKPGQPPKLLIYGASNRYDGVPDRFSGSGSGTDFTLTISSLQAEDVAVYYCAQFYSYPLTFGGGTKVEIK
notes: scFv in periplasmic extract
In the case of B15, the OD450 stood at 1.1 OD450 in experiment [1]; 0.05 OD450 with BSA; 0.53 OD450 in experiment [2]; 0.04 OD450 in experiment [3]; 0.04 OD450 in experiment [4].
